Data published in patent CN111499746A (YUROGEN BIOSYSTEMS LLC, dated 2020).

B1: 抗人IL-2蛋白兔单克隆抗体A (antibody, V domains shown)
VH: QSVAESGGRLVTPGTPLTLTCTASGFSLTTYAMSWVRQAPGKGLEWIAIIYIDGTTYYGSWAKGRFTISKTSTTVDLRIISPTTEDTATYFCAKWYVGEMDLWGPGTLVTVSS
VL: DIVMTQTPASVEAAVGGTVTINCQASQSVYRDNYLAWYQQKPGQRPKLLIYGTSTLASGVSSRFKGSGSGTQFTLTISDLECADAATYYCQSYVYSSTIDNAFGGGTEVVVKG
notes: Recombinant rabbit monoclonal antibody made in 293 cells and purified on protein A; also called 人IL-2兔单克隆抗体A
B2: 抗人IL-2蛋白兔单克隆抗体B (antibody, V domains shown)
VH: QSLEESGGRLVTPGGSLTLTCTVSGIDLSTGGVSWVRQAPGKGLEWIGIISRHTNTYYASWAKGRFTISKTSSTTVDVKITSPTIEDTATYYCARVSSGDGLYAFDPWGPGTLVTVSS
VL: AIEMTQTPSPVSAAVGGTVTINCQASEDIETYLAWYQQKPGQPPRLLIYSGSTIASGVSSHFKGSGSGTEFTLTISDLECADAATYYCQCTSYASGYWNQAFGGGTEVVVRG
notes: Recombinant rabbit monoclonal antibody made in 293 cells and purified on protein A; in the Biacore assay it is unlabelled; also called 人IL-2兔单克隆抗体B

Target: T1, 重组人IL-2蛋白 (human, UniProt P60568 21-153)
T1 construct: also called 人白介素-2; 重组表达人IL-2
Assay: SPR, Biacore 3000; antibody at 333 nM, recombinant human IL-2 at 64, 32, 16, 8, 4 nM

T1 sequence (P60568 21-153 limits assumed): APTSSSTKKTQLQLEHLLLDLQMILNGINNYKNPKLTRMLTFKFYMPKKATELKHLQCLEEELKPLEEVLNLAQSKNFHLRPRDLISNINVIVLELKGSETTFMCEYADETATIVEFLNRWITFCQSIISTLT

| Binder | Kd |
| --- | --- |
| B1 | 0.899 nM |
| B2 | 0.293 nM |
